Assay results taken from the supplement of paper PMC7125110.
± gives the standard error. For some of these results: This sample holds only a part of the variants without activity.

B1: glmS ribozyme (parent)
chain: AUAAAAGCGCCAGAACUACAGAAAUGUAGUUGACGAGGAGGAGGUUUAUCGAAUUUUCGGCGGAUGCCUCCAAA

Experiments:
Settings in all cases: with glucosamine-6-phosphate
glucosamine-6-phosphate [1] = variants of: B1; assay: kcat; higher = faster cleavage; RNA array
How it was run: (§1)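 Tiles of sequenced MiSeq chips were imaged over ~14 h at 37 °C. On them, barcoded ribozyme variants had been transcribed in situ by E. coli RNA polymerase and were tracked via a hybridised Cy3 probe while glucosamine-6-phosphate (40 μM to 10 mM) in HEPES/KCl/Mg(OAc)2 buffer flowed in. Per-tile medians, normalised to baseline and to non-cleaving reference variants, were fit to one- or two-exponential decays for kobs, and weighted Michaelis–Menten fits gave kcat and KM.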

glucosamine-6-phosphate [2] = variants of: B1; assay: self-cleavage kobs at 160 uM GlcN6P; higher = faster cleavage; RNA array
How it was run: as §1

glucosamine-6-phosphate [3] = variants of: B1; assay: self-cleavage kobs at 640 uM GlcN6P; higher = faster cleavage; RNA array
How it was run: as §1

glucosamine-6-phosphate [4] = variants of: B1; assay: self-cleavage kobs at 2500 uM GlcN6P; higher = faster cleavage; RNA array
How it was run: as §1

glucosamine-6-phosphate [5] = variants of: B1; assay: self-cleavage kobs at 10000 uM GlcN6P; higher = faster cleavage; RNA array
How it was run: as §1

glucosamine-6-phosphate [6] = variants of: B1; assay: KM; higher = weaker cofactor use; RNA array
How it was run: as §1

glucosamine-6-phosphate [7] = variants of: B1; assay: self-cleavage kobs at 40 uM GlcN6P; higher = faster cleavage; RNA array
How it was run: as §1

| Variant | kcat (glucosamine-6-phosphate [1]) [s⁻¹] | self-cleavage kobs at 160 uM GlcN6P (glucosamine-6-phosphate [2]) [s⁻¹] | self-cleavage kobs at 640 uM GlcN6P (glucosamine-6-phosphate [3]) [s⁻¹] | self-cleavage kobs at 2500 uM GlcN6P (glucosamine-6-phosphate [4]) [s⁻¹] | self-cleavage kobs at 10000 uM GlcN6P (glucosamine-6-phosphate [5]) [s⁻¹] | KM (glucosamine-6-phosphate [6]) [µM] | self-cleavage kobs at 40 uM GlcN6P (glucosamine-6-phosphate [7]) [s⁻¹] |
| --- | --- | --- | --- | --- | --- | --- | --- |
| U47A U69A | 9.51e-05 ± 1.3e-05 | 0.00011 ± 4.9e-05 | 8.57e-05 ± 2.5e-05 | 0.000188 ± 8e-05 | 8.87e-05 ± 2e-05 |  |  |
| U31A G40C | 0.00121 ± 0.00017 | 0.000105 ± 3e-05 | 0.00048 ± 0.0001 | 0.00115 ± 0.00024 | 0.00101 ± 0.00011 | 1410 ± 380 | 3.09e-05 ± 7.3e-06 |
| G44A C67G | 0.000462 ± 7e-05 | 2.41e-05 ± 1e-05 | 0.000128 ± 1.5e-05 | 0.000355 ± 3.8e-05 | 0.000371 ± 3e-05 | 1700 ± 580 |  |
| U30C C58U | 3.26e-05 ± 1.4e-05 |  | < 1e-05 |  |  |  |  |
| U47G G59U | 2.47e-05 ± 4.4e-06 |  |  | 3.31e-05 ± 1.7e-05 | 2.13e-05 ± 1e-05 |  |  |
| C11G G43A | < 1e-05 | < 1e-05 | < 1e-05 |  | < 1e-05 | 525 ± 190 | < 1e-05 |
| A33C U47C | 4.24e-05 ± 1.3e-05 |  |  | 5.42e-05 ± 1.3e-05 | 3.37e-05 ± 1e-05 |  |  |
| G40A U49G | 0.000121 ± 1.7e-06 |  | 4.19e-05 ± 1e-05 |  | 0.000108 ± 1.3e-05 | 1210 ± 55 |  |
| U55A U69A | 9.24e-05 ± 1e-05 | 9.45e-05 ± 2.4e-05 | 9.88e-05 ± 1.9e-05 | 7.93e-05 ± 1.3e-05 | 0.000129 ± 2.7e-05 |  | 7.99e-05 ± 1.9e-05 |
| G66U C68U | 0.000348 ± 2.4e-05 | 3.82e-05 ± 1.3e-05 | 0.000116 ± 1.2e-05 | 0.000226 ± 4e-05 | 0.000311 ± 2.9e-05 | 1260 ± 190 | 2.21e-05 ± 1e-05 |
| C10G C58U | < 1e-05 |  | < 1e-05 |  | < 1e-05 |  | < 1e-05 |
| A15C U56A | 0.00477 ± 0.0013 |  | 0.00107 ± 0.00016 | 0.00218 ± 0.0005 | 0.00482 ± 0.0008 | 1930 ± 760 | 0.000113 ± 1.7e-05 |
| A15G U65C | 0.000964 ± 0.00027 | 7.34e-05 ± 2.9e-05 | 0.00026 ± 5e-05 | 0.000852 ± 0.00013 | 0.000673 ± 0.00014 |  |  |
| A15U G29C | 0.00199 ± 0.00051 | 0.000116 ± 3.3e-05 | 0.000432 ± 7.6e-05 | 0.000809 ± 0.00016 | 0.00191 ± 0.0003 | 2340 ± 910 | 4.56e-05 ± 9.9e-06 |
| U30G G59U | 1.09e-05 ± 1.8e-06 |  |  |  |  |  | < 1e-05 |
| U56G G59C | < 1e-05 | < 1e-05 | < 1e-05 |  |  |  | < 1e-05 |
| G38C C68A | 1.39e-05 ± 4.4e-06 |  |  |  |  |  | < 1e-05 |
| A48G U54G | 0.000141 ± 9.6e-06 |  | 6.14e-05 ± 1.1e-05 | 0.000134 ± 2.5e-05 | 0.000127 ± 1.2e-05 | 761 ± 180 |  |

| Variant | kcat (glucosamine-6-phosphate [1]) [s⁻¹] | self-cleavage kobs at 160 uM GlcN6P (glucosamine-6-phosphate [2]) [s⁻¹] | self-cleavage kobs at 640 uM GlcN6P (glucosamine-6-phosphate [3]) [s⁻¹] | self-cleavage kobs at 2500 uM GlcN6P (glucosamine-6-phosphate [4]) [s⁻¹] | self-cleavage kobs at 10000 uM GlcN6P (glucosamine-6-phosphate [5]) [s⁻¹] | KM (glucosamine-6-phosphate [6]) [µM] | self-cleavage kobs at 40 uM GlcN6P (glucosamine-6-phosphate [7]) [s⁻¹] |
| --- | --- | --- | --- | --- | --- | --- | --- |
| G13C G40C | 4.48e-05 ± 2e-05 | < 1e-05 |  |  |  |  | < 1e-05 |
| U54C G66U | 0.0027 ± 0.00084 | 0.000108 ± 2.3e-05 | 0.000359 ± 6.3e-05 | 0.00132 ± 0.0002 | 0.00199 ± 0.00024 | 3380 ± 1600 | 6.62e-05 ± 1.2e-05 |
| A15G G32C C67G | 1.35e-05 ± 1.1e-06 |  |  |  |  |  |  |
| G32C C68U | 1.25e-05 ± 1.1e-06 | < 1e-05 |  |  |  | 1350 ± 620 |  |
| C50U C61A C68U | 2.59e-05 ± 6.9e-06 |  |  |  |  |  |  |
| A39U U47C | 0.00869 ± 0.002 | 0.000748 ± 0.0002 | 0.00198 ± 0.00032 | 0.00471 ± 0.00098 | 0.00934 ± 0.0026 | 1870 ± 580 | 0.000213 ± 4.3e-05 |
| U57C C71A | 2.47e-05 ± 4e-06 |  |  | 2.96e-05 ± 1e-05 |  |  |  |
| C10U U55A | 1.86e-05 ± 2.2e-06 |  |  |  | 1.77e-05 ± 7.8e-06 |  |  |
| G51A C61A | 1.66e-05 ± 3.1e-06 |  |  |  |  |  | < 1e-05 |
| C61A C68U | 1.56e-05 ± 2e-06 |  |  |  |  |  |  |
| U45G C71A | 0.000924 ± 0.00018 | 8.6e-05 ± 1.7e-05 | 0.000204 ± 3.8e-05 | 0.000778 ± 0.00016 | 0.000766 ± 0.0001 | 1750 ± 590 | 3.27e-05 ± 1.3e-05 |
| C10U A52C C61A U69A | < 1e-05 |  |  |  |  |  |  |
| G43U C67G | 0.00171 ± 0.00015 | 0.00022 ± 6e-05 | 0.000597 ± 8.6e-05 | 0.00117 ± 0.0002 | 0.00166 ± 0.00022 | 1020 ± 150 | 7.18e-05 ± 1e-05 |
| U55C G60U | 1.04e-05 ± 3.4e-06 | < 1e-05 | < 1e-05 |  | < 1e-05 |  | < 1e-05 |
| A6U A64G | 0.000266 ± 4.3e-05 |  | 7.26e-05 ± 7.4e-06 | 0.000128 ± 1.6e-05 | 0.00025 ± 2.8e-05 | 1910 ± 590 |  |
| G66U U69G | 3.26e-05 ± 1.2e-05 |  | 5.52e-05 ± 2.5e-05 | 4.9e-05 ± 2.2e-05 |  |  |  |
| C16A U46C | 6.68e-05 ± 1.4e-05 |  |  | 5.11e-05 ± 1.4e-05 | 5.46e-05 ± 1e-05 |  | < 1e-05 |
| C10U G63A | < 1e-05 |  | < 1e-05 | < 1e-05 |  |  |  |
